In article PMC10435562, “VEGF-B prevents excessive angiogenesis by inhibiting FGF2/FGFR1 pathway” (Signal Transduction and Targeted Therapy, 2023):

T1: FGFR1-Fc (Z03223, Genscript) (UniProt P11362 22-376)
T1 construct: fibroblast growth factor receptor 1 part of a bought Fc fusion; also called FGFR1 homodimer; FGFR1/FGFR1; source: bought: Genscript (Z03223)
T1 sequence (looked up): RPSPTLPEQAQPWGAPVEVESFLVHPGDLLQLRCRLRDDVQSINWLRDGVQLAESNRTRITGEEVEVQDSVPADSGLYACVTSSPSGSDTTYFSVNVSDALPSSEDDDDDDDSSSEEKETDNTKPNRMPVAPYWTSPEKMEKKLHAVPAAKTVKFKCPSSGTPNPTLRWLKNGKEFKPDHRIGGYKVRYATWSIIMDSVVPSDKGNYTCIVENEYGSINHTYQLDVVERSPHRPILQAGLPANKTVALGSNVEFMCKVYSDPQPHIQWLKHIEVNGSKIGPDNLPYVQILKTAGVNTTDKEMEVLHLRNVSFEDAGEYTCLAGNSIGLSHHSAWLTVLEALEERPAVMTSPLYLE

B1: Human VEGF-B167 (ligand, UniProt P49765-2 22-188, looked up)
chain: PVSQPDAPGHQRKVVSWIDVYTRATCQPREVVVPLTVELMGTVAKQLVPSCVTVQRCGGCCPDDGLECVPTGQHQVRMQILMIRYPSSQLGEMSLEEHSQCECRPKKKDSAVKPDSPRPLCPRCTQHHQRPDPRTCRCRCRRRSFLRCQGRGLELNPDTCRCRKLRR
notes: UniProt P49765 is printed for the VEGF-B167 peptides; Bought recombinant protein; source: bought: PeproTech (100-20B)

Assays:
Human VEGF-B167 [1] = molecular target: B1; assay: SPR; VEGF-B immobilised at 3820 RU on CM5 (the FGF2 surface is not described); FGFR1 DI (18.75-600 nM), DII (3.125-100 nM), DIII (12.5-400 nM), DII-III (25-800 nM) flowed at 10 µl/min
[2] = molecular target: FGF2 (BFF-H4117, Acro Biosystems) (UniProt P09038); assay: as above
Human VEGF-B167 [3] = molecular target: B1; assay: SPR; VEGF-B immobilised at 3820 RU on CM5 (the VEGF-C surface is not described); heterodimer proteins flowed at 1.875-60 nM, 10 µl/min; conditions: both partners purified
[4] = molecular target: T2, FGF2 (BFF-H4117, Acro Biosystems) (UniProt P09038 143-288); assay: SPR; VEGF-B immobilised at 3820 RU on CM5 (the FGF2 surface is not described); FGFR1 DI (18.75-600 nM), DII (3.125-100 nM), DIII (12.5-400 nM), DII-III (25-800 nM) flowed at 10 µl/min; conditions: both partners purified
T2 construct: fibroblast growth factor 2 (basic FGF); Immobilised on the CM5 chip for SPR; also called basic FGF; fibroblast growth factor 2; source: bought: Acro Biosystems (BFF-H4117)

[5] = molecular target: T1, FGFR1-Fc (Z03223, Genscript); assay: SPR; BIAcore 8000; VEGF-B, FGF2 or PlGF immobilised (5389, 1860, 4700 RU) on CM5 by amine coupling; FGFR1-Fc flowed at 12.5-400 nM, 30 µl/min; 1:1 binding model, KD = kd/ka; conditions: both partners purified

FGF2 (BFF-H4117, Acro Biosystems) (UniProt P09038), sequence (P09038 143-288): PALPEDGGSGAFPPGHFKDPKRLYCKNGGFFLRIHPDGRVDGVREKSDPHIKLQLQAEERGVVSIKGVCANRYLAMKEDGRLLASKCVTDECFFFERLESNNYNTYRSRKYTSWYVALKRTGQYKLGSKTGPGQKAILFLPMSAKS
T2 sequence (P09038 143-288): as above

Kd (Human VEGF-B167 [1]) [nM] | Kd [2] [nM] | Molecule | further results
49 | 63 | FGFR1 DII-III (domain or fragment) | 
101 | 71 | FGFR1 DII (domain or fragment) | 
64 | 43 | FGFR1 DIII (domain or fragment) | 
 |  | FGFR1 ECD-L-VEGFR1 ECD (other) RPSPTLPEQAQPWGAPVEVESFLVHPGDLLQLRCRLRDDVQSINWLRDGVQLAESNRTRITGEEVEVQDSVPADSGLYACVTSSPSGSDTTYFSVNVSDALPSSEDDDDDDDSSSEEKETDNTKPNRMPVAPYWTSPEKMEKKLHAVPAAKTVKFKCPSSGTPNPTLRWLKNGKEFKPDHRIGGYKVRYATWSIIMDSVVPSDKGNYTCIVENEYGSINHTYQLDVVERSPHRPILQAGLPANKTVALGSNVEFMCKVYSDPQPHIQWLKHIEVNGSKIGPDNLPYVQILKTAGVNTTDKEMEVLHLRNVSFEDAGEYTCLAGNSIGLSHHSAWLTVLEALEERPAVMTSPLYLESKLKDPELSLKGTQHIMQAGQTLHLQCRGEAAHKWSLPEMVSKESERLSITKSACGRNGKQFCSTLTLNTAQANHTGFYSCKYLAVPTSKKKETESAIYIFISDTGRPFVEMYSEIPEIIHMTEGRELVIPCRVTSPNITVTLKKFPLDTLIPDGKRIIWDSRKGFIISNATYKEIGLLTCEATVNGHLYKTNYLTHRQTNTIIDVQISTPRPVKLLRGHTLVLNCTATTPLNTRVQMTWSYPDEKNKRASVRRRIDQSNSHANIFYSVLTIDKMQNKDKGLYTCRVRSGPSFKSVNTSVHIYDKAFITVKHRKQQVLETVAGKRSYRLSMKVKAFPSPEVVWLKDGLPATEKSARYLTRGYSLIIKDVTEEDAGNYTILLSIKQSNVFKNLTATLIVNVKPQIYEKAVSSFPDPALYPLGSRQILTCTAYGIPQPTIKWFWHPCNHNHSEARCDFCSNNEESFILDADSNMGNRIESITQRMAIIEGKNKMASTLVVADSRISGIYICIASNKVGTVGRNISFYITDVPNGFHVNLEKMPTEGEDLKLSCTVNKFLYRDVTWILLRTVNNRTMHYSISKQKMAITKEHSITLNLTIMNVSLQDSGTYACRARNVYTGEEILQKKEITIRDQEAPYLLRNLSDHTVAISSSTTLDCHANGVPEPQITWFKNNHKIQQEPGIILGPGSSTLFIERVTEEDEGVYHCKATNQKGSVESSAYLTVQGTSDKSNLE | Kd (Human VEGF-B167 [3]): 3.7 nM
 |  | VEGFR1 ECD-L-FGFR1 ECD (other) SKLKDPELSLKGTQHIMQAGQTLHLQCRGEAAHKWSLPEMVSKESERLSITKSACGRNGKQFCSTLTLNTAQANHTGFYSCKYLAVPTSKKKETESAIYIFISDTGRPFVEMYSEIPEIIHMTEGRELVIPCRVTSPNITVTLKKFPLDTLIPDGKRIIWDSRKGFIISNATYKEIGLLTCEATVNGHLYKTNYLTHRQTNTIIDVQISTPRPVKLLRGHTLVLNCTATTPLNTRVQMTWSYPDEKNKRASVRRRIDQSNSHANIFYSVLTIDKMQNKDKGLYTCRVRSGPSFKSVNTSVHIYDKAFITVKHRKQQVLETVAGKRSYRLSMKVKAFPSPEVVWLKDGLPATEKSARYLTRGYSLIIKDVTEEDAGNYTILLSIKQSNVFKNLTATLIVNVKPQIYEKAVSSFPDPALYPLGSRQILTCTAYGIPQPTIKWFWHPCNHNHSEARCDFCSNNEESFILDADSNMGNRIESITQRMAIIEGKNKMASTLVVADSRISGIYICIASNKVGTVGRNISFYITDVPNGFHVNLEKMPTEGEDLKLSCTVNKFLYRDVTWILLRTVNNRTMHYSISKQKMAITKEHSITLNLTIMNVSLQDSGTYACRARNVYTGEEILQKKEITIRDQEAPYLLRNLSDHTVAISSSTTLDCHANGVPEPQITWFKNNHKIQQEPGIILGPGSSTLFIERVTEEDEGVYHCKATNQKGSVESSAYLTVQGTSDKSNLERPSPTLPEQAQPWGAPVEVESFLVHPGDLLQLRCRLRDDVQSINWLRDGVQLAESNRTRITGEEVEVQDSVPADSGLYACVTSSPSGSDTTYFSVNVSDALPSSEDDDDDDDSSSEEKETDNTKPNRMPVAPYWTSPEKMEKKLHAVPAAKTVKFKCPSSGTPNPTLRWLKNGKEFKPDHRIGGYKVRYATWSIIMDSVVPSDKGNYTCIVENEYGSINHTYQLDVVERSPHRPILQAGLPANKTVALGSNVEFMCKVYSDPQPHIQWLKHIEVNGSKIGPDNLPYVQILKTAGVNTTDKEMEVLHLRNVSFEDAGEYTCLAGNSIGLSHHSAWLTVLEALEERPAVMTSPLYLE | Kd (Human VEGF-B167 [3]): 1.4 nM
 |  | FGFR1 DI (domain or fragment) PTLPEQAQPWGAPVEVESFLVHPGDLLQLRCRLRDDVQSINWLRDGVQLAESNRTRITGEEVEVQDSVPADSGLYACVTSSPSGSDTTYFSVNVS | Kd [4]: 245 nM; Kd (Human VEGF-B167 [1]; both partners purified): 532 nM
 |  | B1 | Kd [5]: 17 nM
